The results in this text go back to patent publication US20120258108A1 (AbbVie / Abbott, published 2012).

A word on the Kd: it is the equilibrium constant for the complex coming apart. The koff is a measure of how fast the partners let go of each other. The kon is a measure of how fast the partners come together.

In assay [1] the target is T1, Recombinant Human TNFα/TNFSF1A (human, UniProt P01375 77-233).
T1 construct: also called huTNFα
In words: SPR (BIACORE). As for the experimental part: (§1) The BIACORE assay (Biacore, Inc, Piscataway, N.J.) determines the affinity of antibodies or DVD-Ig with kinetic measurements of on-rate and off-rate constants. Binding of antibodies or DVD-Ig to a target antigen (for example, a purified recombinant target antigen) was determined by surface plasmon resonance-based measurements with a Biacore® 1000 or 3000 instrument (Biacore® AB, Uppsala, Sweden) using running HBS-EP (10 mM HEPES [pH 7.4], 150 mM NaCl, 3 mM EDTA, and 0.005% surfactant P20) at 25° C. All chemicals were obtained from Biacore® AB (Uppsala, Sweden) or otherwise from a different source as described in the text. For example, approximately 5000 RU of goat anti-mouse IgG, (Fcγ), fragment specific polyclonal antibody (Pierce Biotechnology Inc, Rockford, Ill.) diluted in 10 mM sodium acetate (pH 4.5) is directly immobilized across a CM5 research grade biosensor chip using a standard amine coupling kit according to manufacturer's instructions and procedures at 25 μg/ml. Unreacted moieties on the biosensor surface are blocked with ethanolamine. Modified carboxymethyl dextran surface in flowcell 2 and 4 is used as a reaction surface. Unmodified carboxymethyl dextran without goat anti-mouse IgG in flow cell 1 and 3 is used as the reference surface. For kinetic analysis, rate equations derived from the 1:1 Langmuir binding model are fitted simultaneously to association and dissociation phases of all eight injections (using global fit analysis) with the use of Biaevaluation 4.0.1 software. Purified antibodies or DVD-Ig are diluted in HEPES-buffered saline for capture across goat anti-mouse IgG specific reaction surfaces. Antibodies or DVD-Ig to be captured as a ligand (25 μg/ml) are injected over reaction matrices at a flow rate of 5 μl/min. The association and dissociation rate constants, kₒₙ (M⁻¹ s⁻¹) and koff (s⁻¹) are determined under a continuous flow rate of 25 μl/min. Rate constants are derived by making kinetic binding measurements at different antigen concentrations ranging from 10-200 nM. The equilibrium dissociation constant (M) of the reaction between antibodies or DVD-Igs and the target antigen is then calculated from the kinetic rate constants by the following formula: KD=koff/kₒₙ. Binding is recorded as a function of time and kinetic rate constants are calculated.
On the technique in general: SPR reads the build-up and loss of mass on a sensor chip optically.

The target of assay [2] is T1, Recombinant Human TNFα/TNFSF1A. Briefly: cell-based or functional assay.
The target in a further assay is Recombinant Human DLL4 (human, UniProt Q9NR61 27-524). In words: SPR (BIACORE). As for the experimental part:
as §1

In assay [3] the target is Recombinant Human VEGF 165 (human, UniProt P15692-4 27-191). Briefly: SPR (BIACORE). Here is the method: as §1
Sequence of Recombinant Human VEGF 165 (P15692 other isoform, or with tags, fused parts or gaps limits assumed): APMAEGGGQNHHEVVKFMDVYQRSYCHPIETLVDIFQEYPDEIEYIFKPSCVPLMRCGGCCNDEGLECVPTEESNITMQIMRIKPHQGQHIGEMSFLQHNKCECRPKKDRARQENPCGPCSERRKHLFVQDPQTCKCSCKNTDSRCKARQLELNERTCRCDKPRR

T1 sequence (P01375 77-233 limits assumed): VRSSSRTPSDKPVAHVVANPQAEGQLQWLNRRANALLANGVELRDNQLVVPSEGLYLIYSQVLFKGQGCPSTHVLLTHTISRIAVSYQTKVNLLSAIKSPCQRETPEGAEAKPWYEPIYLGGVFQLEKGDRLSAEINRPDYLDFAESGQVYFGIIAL
Sequence of Recombinant Human DLL4 (Q9NR61 27-524 limits assumed): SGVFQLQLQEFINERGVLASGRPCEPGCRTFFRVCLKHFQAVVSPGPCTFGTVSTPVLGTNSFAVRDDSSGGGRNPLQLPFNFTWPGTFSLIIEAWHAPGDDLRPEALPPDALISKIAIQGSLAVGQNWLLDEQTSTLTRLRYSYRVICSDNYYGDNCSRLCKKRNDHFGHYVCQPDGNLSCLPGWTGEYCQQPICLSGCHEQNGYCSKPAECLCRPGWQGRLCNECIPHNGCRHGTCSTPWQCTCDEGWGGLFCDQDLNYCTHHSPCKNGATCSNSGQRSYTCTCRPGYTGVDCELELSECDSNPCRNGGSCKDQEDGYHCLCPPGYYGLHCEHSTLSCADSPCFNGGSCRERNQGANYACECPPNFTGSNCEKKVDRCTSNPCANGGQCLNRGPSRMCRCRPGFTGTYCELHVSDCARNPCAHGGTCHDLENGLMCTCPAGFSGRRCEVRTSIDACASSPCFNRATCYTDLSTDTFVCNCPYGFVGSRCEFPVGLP

B1: AB281 (antibody, human IgG1, kappa, V domains shown)
VH: EVTLRESGPALVKPTQTLTLTCTASGFTFDDYAMHWVRQPPGKGLEWVSAITWNSGHIDYADSVEGRFTISRDNSKNQLVLTMTNMDPVDTATYYCAKVSYLSTASSLDYWGQGTTVTVSS
VL: DIVMTQSPDSLAVSLGERATINCRASQGIRNYLAWYQQKPGQAPKLLIYAASTLQSGVPDRFSGSGSGTDFTLTISSLQAEDVAVYYCQRYNRAPYTFGGGTKVEIKR
notes: CDR-grafted parent antibody; also called TNF (AB057)
Regarding B1, in assay [1], the Kd worked out at 0.088 nM, the koff turned out to be 0.0001 s⁻¹ and the kon turned out to be 1.2e+06 M⁻¹ s⁻¹. In addition, in assay [2], the “TNFα Neutralization Assay EC50 nM (L929 cells)” value was found to be 0.104 nM.

B2: DVD1727 (bispecific antibody, human IgG1, kappa)
heavy: not shown
light: DVQMTQSPSSLSASVGDRVTITCTSSQNIVHSNGNTYLEWYQQKPGKSPKLLIYKVSNRFSGVPSRFSGSGSGTDFTLTISSLQPEDVATYYCFQVSHVPYTFGQGTKVEIKRTVAAPDIRMTQSPASLSASLGETVNIECRASQGIRNYLAWYQQKPGKAPQLLIYAASTLQSGVPSRFSGSGSGTQFSLKINSLQSEDVATYYCQRYNRAPYTFGGGTKLELKRTVAAPSVFIFPPSDEQLKSGTASVVCLLNNFYPREAKVQWKVDNALQSGNSQESVTEQDSKDSTYSLSSTLTLSKADYEKHKVYACEVTHQGLSSPVTKSFNRGEC
notes: DVD-Ig; also called PGE2 (AB017) / TNF (AB023) DVD-Ig
Consider B2, for which, in assay [1], the Kd came out at 5.4 nM, the koff is 0.00012 s⁻¹ and the kon is 22000 M⁻¹ s⁻¹. Also, in assay [2], the “C-terminal VD TNFα Neutralization Assay EC50 nM (L929 cells)” value was 1.17 nM.

B3: AB314 (antibody, human IgG1, kappa, V domains shown)
VH: EVQLVESGGGLVQPANSLKLSCAASGFTFDDYAMHWVRQSPKKGLEWVSAITWNSGHIDYADSVEGRFTISRDNAKNTLYLQMDSLRSEDTATYYCAKVSYLSTASSLDYWGQGVLVTVSS
VL: DIRMTQSPASLSASLGETVNIECRASQGIRNYLAWYQQKPGKAPQLLIYAASTLQSGVPSRFSGSGSGTQFSLKINSLQSEDVATYYCQRYNRAPYTFGGGTKLELKR
notes: CDR-grafted parent antibody; also called TNF (AB023)
Regarding B3, in assay [1], the dissociation constant Kd amounted to 0.064 nM, the koff was 7.9e-05 s⁻¹ and the kon was 1.2e+06 M⁻¹ s⁻¹. Moreover, the “TNFα Neutralization Assay EC50 nM (L929 cells)” value in assay [2] came to 0.053 nM.

B4: DVD1720 (bispecific antibody)
heavy: not shown
light: EIVMTQSPGTLSLSPGERATLSCRASQGIRNYLAWYQQKPGQAPRLLIYAASTLQSGVPDRFSGSGSGTDFTLTISRLEPEDFAVFYCQRYNRAPYTFGQGTKVEIKRTVAAPDVQMTQSPSSLSASVGDRVTITCTSSQNIVHSNGNTYLEWYQQKPGKSPKLLIYKVSNRFSGVPSRFSGSGSGTDFTLTISSLQPEDVATYYCFQVSHVPYTFGQGTKVEIKRTVAAPSVFIFPPSDEQLKSGTASVVCLLNNFYPREAKVQWKVDNALQSGNSQESVTEQDSKDSTYSLSSTLTLSKADYEKHKVYACEVTHQGLSSPVTKSFNRGEC
With B4, the “N-terminal VD TNFα Neutralization Assay EC50 nM (L929 cells)” value in assay [2] was determined as 0.026 nM.

B5: AB284 (antibody, human IgG1, kappa, V domains shown)
VH: EVQLVQSGTEVKKPGESLKISCKASGFTFDDYAMHWVRQMPGKGLEWVSAITWNSGHIDYADSVEGQFTISRDNSFNTLFLQWSSLKASDTAMYYCAKVSYLSTASSLDYWGQGTMVTVSS
VL: EIVMTQSPATLSVSPGERATLSCRASQGIRNYLAWYQQKPGQAPRLLIYAASTLQSDVPARFSGSGSGTEFTLTISSLQSEDFAVYYCQRYNRAPYTFGQGTRLEIKR
notes: CDR-grafted parent antibody; also called TNF (AB058)
Regarding B5, in assay [1], the Kd is 0.13 nM, the off-rate (koff) turned out to be 0.00015 s⁻¹ and the kon was determined as 1.2e+06 M⁻¹ s⁻¹. In addition, the “TNFα Neutralization Assay EC50 nM (L929 cells)” value in assay [2] was found to be 0.228 nM.

B6: DVD1731 (bispecific antibody, human IgG1, kappa)
heavy: not shown
light: DIQMTQSPSSLSASVGDRVTITCRASEDIYSNLAWYQQKPGKAPKLLIYDTNNLADGVPSRFSGSGSGTDFTLTISSLQPEDVATYYCQQYNNYPPTFGQGTKVEIKRTVAAPDIRMTQSPASLSASLGETVNIECSASQDISNYLNWYQQKPGKAPQVLIYFTSSLHSGVPSRFSGSGSGTQFSLKINSLQSEDVATYYCQQYSTVPWTFGGGTKLELKRTVAAPSVFIFPPSDEQLKSGTASVVCLLNNFYPREAKVQWKVDNALQSGNSQESVTEQDSKDSTYSLSSTLTLSKADYEKHKVYACEVTHQGLSSPVTKSFNRGEC
notes: DVD-Ig
For the molecule B6, in the assay with Recombinant Human DLL4, the dissociation constant Kd worked out at 22 nM, the koff was found to be 0.0028 s⁻¹ and the kon was 120000 M⁻¹ s⁻¹. Further, in assay [3], the Kd was found to be 0.5 nM, the koff turned out to be 4.5e-05 s⁻¹ and the kon was 89000 M⁻¹ s⁻¹.
